Usually EC50 stands for the midpoint of the concentration-response curve. High values mean lower potency in that assay, low ones higher potency in that assay.

In test [1] the target is T1, B7H3 (human, UniProt Q5ZPR3 29-466, limits assumed).
T1 sequence (looked up): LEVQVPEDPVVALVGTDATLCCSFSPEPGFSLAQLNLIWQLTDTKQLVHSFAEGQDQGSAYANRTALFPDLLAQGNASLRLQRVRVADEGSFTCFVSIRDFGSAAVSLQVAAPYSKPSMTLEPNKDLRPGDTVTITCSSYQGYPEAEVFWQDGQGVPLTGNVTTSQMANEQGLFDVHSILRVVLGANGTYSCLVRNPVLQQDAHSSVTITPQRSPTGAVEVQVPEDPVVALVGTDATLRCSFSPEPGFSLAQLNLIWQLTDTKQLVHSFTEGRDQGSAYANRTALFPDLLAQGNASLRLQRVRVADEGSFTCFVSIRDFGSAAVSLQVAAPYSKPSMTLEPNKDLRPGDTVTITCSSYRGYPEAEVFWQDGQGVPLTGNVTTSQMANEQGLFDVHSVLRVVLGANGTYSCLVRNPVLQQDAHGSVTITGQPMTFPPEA
Put plainly: ELISA or FCM (Example 2). (In general: In an ELISA, binding on a coated surface is turned into a signal by an enzyme label.)

In test [2] the target is T2, CD137 (human, UniProt Q07011 24-186).
T2 construct: In the reporter assay it is whole, on GS-H2-huCD137 cells; also called 4-1BB; huCD137
Nature of the test: CD137 binding, FCM or ELISA.

Test [3] deals with CD3 (human). Nature of the test: CD3 binding, as described in Example 2 (ELISA or FCM).
The target of test [4] is T3, B7H3 (UniProt Q5ZPR3 29-466, limits assumed).
T3 sequence (looked up): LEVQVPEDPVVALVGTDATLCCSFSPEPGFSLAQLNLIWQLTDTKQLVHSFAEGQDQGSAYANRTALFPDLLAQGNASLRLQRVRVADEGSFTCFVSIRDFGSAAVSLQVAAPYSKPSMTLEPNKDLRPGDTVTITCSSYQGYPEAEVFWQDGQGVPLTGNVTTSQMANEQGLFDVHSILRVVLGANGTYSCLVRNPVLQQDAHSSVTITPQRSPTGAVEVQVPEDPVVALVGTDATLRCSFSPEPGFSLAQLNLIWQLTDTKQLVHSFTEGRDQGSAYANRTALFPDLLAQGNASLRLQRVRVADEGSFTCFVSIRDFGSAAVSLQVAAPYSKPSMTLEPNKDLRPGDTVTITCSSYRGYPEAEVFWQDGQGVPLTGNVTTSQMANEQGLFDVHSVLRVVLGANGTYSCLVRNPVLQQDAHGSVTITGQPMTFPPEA
Put plainly: FCM or ELISA, graded.

Test [5] addresses CD40 (UniProt P25942 21-193, limits assumed). Nature of the test: FCM or ELISA, graded.

Sequence of CD40 (P25942 21-193 limits assumed): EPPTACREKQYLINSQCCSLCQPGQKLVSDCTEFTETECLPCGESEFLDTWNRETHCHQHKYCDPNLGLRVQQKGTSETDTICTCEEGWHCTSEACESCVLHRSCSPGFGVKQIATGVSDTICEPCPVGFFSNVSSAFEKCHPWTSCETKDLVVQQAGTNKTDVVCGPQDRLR
Sequence of CD3 (human) (chain, as listed by the source): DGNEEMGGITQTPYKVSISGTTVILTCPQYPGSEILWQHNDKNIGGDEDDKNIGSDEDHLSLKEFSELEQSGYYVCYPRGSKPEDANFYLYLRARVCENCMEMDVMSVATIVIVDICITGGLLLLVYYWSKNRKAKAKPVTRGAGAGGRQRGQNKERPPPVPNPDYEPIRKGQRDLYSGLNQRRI

B1: Ly1963 (other)
chain 1: QVQLVQSGAEVKKPGASVKVSCKASGYTFTSYVMHWVRQKPGQGLEWIGYINPYNEGTESTDKFKGRATMTSDKSTSTVYMELSSLRSEDTAVYYCASIYYGYEGTYFGVWGQGTLVTVSSASTKGPSVFPLAPSSKSTSGGTAALGCLVKDYFPEPVTVSWNSGALTSGVHTFPAVLQSSGLYSLSSVVTVPSSSLGTQTYICNVNHKPSNTKVDKKVEPKSCGGGGSGGGGSGGGGSGGGGSEVQLVESGGGLVQPGGSLRLSCAASGFTFSTYAMNWVRQAPGKGLEWVGRIRSKYNNYATYYADSVKGRFTISRDDSKNSLYLQMNSLKTEDTAVYYCVRHGNFGNSYVSWFAYWGQGTLVTVSSGGGGSDKTHTCPPCPAPEAAGPSVFLFPPKPKDTLMISRTPEVTCVVVDVSHEDPEVKFNWYVDGVEVHNAKTKPREEQYNSTYRVVSVLTVLHQDWLNGKEYKCKVSNKALPAPIEKTISKAKGQPREPQVYTLPPSREEMTKNQVSLWCLVKGFYPSDIAVEWESNGQPENNYKTTPPVLDSDGSFFLYSKLTVDKSRWQQGNVFSCSVMHEALHNHYTQKSLSLSPGGGGGSGGGGSGGGGSGGGGSQVQLVQSGAEVKKPGASVKVSCKASGYTFAGFEMHWVRQAPGQGLEWMGAIDPKTGGTDYNQKFKDRVTMTRDTSISTAYMELSRLRSDDTAVYYCARDLGYFDVWGQGTLVTVSS
chain 2: QVQLVQSGAEVKKPGASVKVSCKASGYTFTSYVMHWVRQKPGQGLEWIGYINPYNEGTESTDKFKGRATMTSDKSTSTVYMELSSLRSEDTAVYYCASIYYGYEGTYFGVWGQGTLVTVSSASTKGPSVFPLAPSSKSTSGGTAALGCLVKDYFPEPVTVSWNSGALTSGVHTFPAVLQSSGLYSLSSVVTVPSSSLGTQTYICNVNHKPSNTKVDKKVEPKSCGGGGSGGGGSGGGGSGGGGSQAVVTQEPSLTVSPGGTVTLTCRSSTGAVTTSNYANWVQQKPGQAPRGLIGGTNKRAPWTPARFSGSLLGGKAALTITGAQAEDEADYYCALWYSNLWVFGGGTKLTVLGGGGSDKTHTCPPCPAPEAAGPSVFLFPPKPKDTLMISRTPEVTCVVVDVSHEDPEVKFNWYVDGVEVHNAKTKPREEQYNSTYRVVSVLTVLHQDWLNGKEYKCKVSNKALPAPIEKTISKAKGQPREPQVYTLPPSREEMTKNQVSLSCAVKGFYPSDIAVEWESNGQPENNYKTTPPVLDSDGSFFLVSKLTVDKSRWQQGNVFSCSVMHEALHNHYTQKSLSLSPGGGGGSGGGGSGGGGSGGGGSDIQMTQSPSSLSASVGDRVTITCRASQDIRSNLNWYQQKPGGAVKLLIYYTSRLHSGVPSRFSGSGSGTDYTLTISSLQPEDFATYFCQQSEKLPRTFGGGTKVEIR
light: EIVLTQSPATLSLSPGERATLSCRASSSVSYMHWYQQKPGQAPRPWIYATSNLASGIPARFSGSRSGTDYTLTISSLEPEDFAVYYCQQWSSNTLTFGGGTKVEIKRTVAAPSVFIFPPSDEQLKSGTASVVCLLNNFYPREAKVQWKVDNALQSGNSQESVTEQDSKDSTYSLSSTLTLSKADYEKHKVYACEVTHQGLSSPVTKSFNRGEC
notes: Tri-specific antibody: B7H3 Fabs, central CD3 Fv, terminal CD137 Fv; Flexible linker is (G4S)4
Turning to B1, the binding result in test [1] and in test [2] was “binds” in each case. This molecule also came in with an EC50 in test [3] of 0.74 mg/L.

B2: Ly2428 (bispecific antibody)
heavy 1: QVQLVQSGAEVKKPGASVKVSCKASGYTFTSYVMHWVRQKPGQGLEWIGYINPYNEGTESTDKFKGRATMTSDKSTSTVYMELSSLRSEDTAVYYCASIYYGYEGTYFGVWGQGTLVTVSSASTKGPSVFPLAPSSKSTSGGTAALGCLVKDYFPEPVTVSWNSGALTSGVHTFPAVLQSSGLYSLSSVVTVPSSSLGTQTYICNVNHKPSNTKVDKKVEPKSCGGGGSGGGGSGGGGSGGGGSEVQLVESGGGLVQPGGSLRLSCAASGFTFTNYGLHWVRQAPGKGLEWVSSISPSGGVTYYRDSVKGRFTISRDNSKNTLYLQMNSLRAEDTAVYYCAKPFLGWGGANWIAHWGQGTLVTVSSGGGGSDKTHTCPPCPAPEAAGPSVFLFPPKPKDTLMISRTPEVTCVVVDVSHEDPEVKFNWYVDGVEVHNAKTKPREEQYNSTYRVVSVLTVLHQDWLNGKEYKCKVSNKALPAPIEKTISKAKGQPREPQVYTLPPSREEMTKNQVSLWCLVKGFYPSDIAVEWESNGQPENNYKTTPPVLDSDGSFFLYSKLTVDKSRWQQGNVFSCSVMHEALHNHYTQKSLSLSPG
heavy 2: QVQLVQSGAEVKKPGASVKVSCKASGYTFTSYVMHWVRQKPGQGLEWIGYINPYNEGTESTDKFKGRATMTSDKSTSTVYMELSSLRSEDTAVYYCASIYYGYEGTYFGVWGQGTLVTVSSASTKGPSVFPLAPSSKSTSGGTAALGCLVKDYFPEPVTVSWNSGALTSGVHTFPAVLQSSGLYSLSSVVTVPSSSLGTQTYICNVNHKPSNTKVDKKVEPKSCGGGGSGGGGSGGGGSGGGGSDIQMTQSPSSLSASVGDRVTITCLASEDISNDLAWYQQKPGKAPKLLIYFVDRLLDGVPSRFSGSGSGTDFTLTISSLQPEDFATYYCQQSYKYPPTFGQGTKLEIKGGGGSDKTHTCPPCPAPEAAGPSVFLFPPKPKDTLMISRTPEVTCVVVDVSHEDPEVKFNWYVDGVEVHNAKTKPREEQYNSTYRVVSVLTVLHQDWLNGKEYKCKVSNKALPAPIEKTISKAKGQPREPQVYTLPPSREEMTKNQVSLSCAVKGFYPSDIAVEWESNGQPENNYKTTPPVLDSDGSFFLVSKLTVDKSRWQQGNVFSCSVMHEALHNRFTQKSLSLSPG
light: EIVLTQSPATLSLSPGERATLSCRASSSVSYMHWYQQKPGQAPRPWIYATSNLASGIPARFSGSRSGTDYTLTISSLEPEDFAVYYCQQWSSNTLTFGGGTKVEIKRTVAAPSVFIFPPSDEQLKSGTASVVCLLNNFYPREAKVQWKVDNALQSGNSQESVTEQDSKDSTYSLSSTLTLSKADYEKHKVYACEVTHQGLSSPVTKSFNRGEC
notes: B7H3 Fabs x central CD40 Fv (TM559)
B2: the binding result in test [4] and in test [5] was “binds” in each case.

B3: Ly2279 (bispecific antibody)
heavy 1: not shown
heavy 2: QVQLVQSGAEVKKPGASVKVSCKASGYTFTSYVMHWVRQKPGQGLEWIGYINPYNEGTESTDKFKGRATMTSDKSTSTVYMELSSLRSEDTAVYYCASIYYGYEGTYFGVWGQGTLVTVSSASTKGPSVFPLAPSSKSTSGGTAALGCLVKDYFPEPVTVSWNSGALTSGVHTFPAVLQSSGLYSLSSVVTVPSSSLGTQTYICNVNHKPSNTKVDKKVEPKSCGGGGSGGGGSGGGGSGGGGSDIQMTQSPSSVSASVGDRVTITCRASQGIYSWLAWYQQKPGKAPNLLIYTASTLQSGVPSRFSGSGSGTDFTLTISSLQPEDFATYYCQQANIFPLTFGGGTKVEIKGGGGSDKTHTCPPCPAPEAAGPSVFLFPPKPKDTLMISRTPEVTCVVVDVSHEDPEVKFNWYVDGVEVHNAKTKPREEQYNSTYRVVSVLTVLHQDWLNGKEYKCKVSNKALPAPIEKTISKAKGQPREPQVYTLPPSREEMTKNQVSLSCAVKGFYPSDIAVEWESNGQPENNYKTTPPVLDSDGSFFLVSKLTVDKSRWQQGNVFSCSVMHEALHNRFTQKSLSLSPG
light: EIVLTQSPATLSLSPGERATLSCRASSSVSYMHWYQQKPGQAPRPWIYATSNLASGIPARFSGSRSGTDYTLTISSLEPEDFAVYYCQQWSSNTLTFGGGTKVEIKRTVAAPSVFIFPPSDEQLKSGTASVVCLLNNFYPREAKVQWKVDNALQSGNSQESVTEQDSKDSTYSLSSTLTLSKADYEKHKVYACEVTHQGLSSPVTKSFNRGEC
notes: B7H3 Fabs x central CD40 Fv (TM383)
Regarding B3, in test [4], the binding result is recorded as “binds”.

B4: Ly2424 (bispecific antibody, human IgG1, kappa)
heavy 1: not shown
heavy 2: QVQLVQSGAEVKKPGASVKVSCKASGYTFTSYVMHWVRQKPGQGLEWIGYINPYNEGTESTDKFKGRATMTSDKSTSTVYMELSSLRSEDTAVYYCASIYYGYEGTYFGVWGQGTLVTVSSASTKGPSVFPLAPSSKSTSGGTAALGCLVKDYFPEPVTVSWNSGALTSGVHTFPAVLQSSGLYSLSSVVTVPSSSLGTQTYICNVNHKPSNTKVDKKVEPKSCDKTHTCPPCPAPEAAGPSVFLFPPKPKDTLMISRTPEVTCVVVDVSHEDPEVKFNWYVDGVEVHNAKTKPREEQYNSTYRVVSVLTVLHQDWLNGKEYKCKVSNKALPAPIEKTISKAKGQPREPQVYTLPPSREEMTKNQVSLSCAVKGFYPSDIAVEWESNGQPENNYKTTPPVLDSDGSFFLVSKLTVDKSRWQQGNVFSCSVMHEALHNRFTQKSLSLSPGGGGGSGGGGSGGGGSGGGGSDIQMTQSPSSVSASVGDRVTITCRASQGIYSWLAWYQQKPGKAPNLLIYTASTLQSGVPSRFSGSGSGTDFTLTISSLQPEDFATYYCQQANIFPLTFGGGTKVEIK
light: EIVLTQSPATLSLSPGERATLSCRASSSVSYMHWYQQKPGQAPRPWIYATSNLASGIPARFSGSRSGTDYTLTISSLEPEDFAVYYCQQWSSNTLTFGGGTKVEIKRTVAAPSVFIFPPSDEQLKSGTASVVCLLNNFYPREAKVQWKVDNALQSGNSQESVTEQDSKDSTYSLSSTLTLSKADYEKHKVYACEVTHQGLSSPVTKSFNRGEC
notes: B7H3 Fabs x terminal CD40 Fv (TM383)
For B4, the binding result in test [4] and in test [5] was “binds” each time.

B5: TM559 (antibody, V domains shown)
VH: EVQLVESGGGLVQPGGSLRLSCAASGFTFTNYGLHWVRQAPGKGLEWVSSISPSGGVTYYRDSVKGRFTISRDNSKNTLYLQMNSLRAEDTAVYYCAKPFLGWGGANWIAHWGQGTLVTVSS
VL: DIQMTQSPSSLSASVGDRVTITCLASEDISNDLAWYQQKPGKAPKLLIYFVDRLLDGVPSRFSGSGSGTDFTLTISSLQPEDFATYYCQQSYKYPPTFGQGTKLEIK
notes: Parent mAb; also called Anti-CD40 TM559
B5: in test [5], the binding result is listed as “binds”.

For the origin of these results see patent US20250388669A1 (published 2025).
